Biological target: T1, alpha-fetoprotein (AFP) (UniProt P02771 19-609)
T1 sequence: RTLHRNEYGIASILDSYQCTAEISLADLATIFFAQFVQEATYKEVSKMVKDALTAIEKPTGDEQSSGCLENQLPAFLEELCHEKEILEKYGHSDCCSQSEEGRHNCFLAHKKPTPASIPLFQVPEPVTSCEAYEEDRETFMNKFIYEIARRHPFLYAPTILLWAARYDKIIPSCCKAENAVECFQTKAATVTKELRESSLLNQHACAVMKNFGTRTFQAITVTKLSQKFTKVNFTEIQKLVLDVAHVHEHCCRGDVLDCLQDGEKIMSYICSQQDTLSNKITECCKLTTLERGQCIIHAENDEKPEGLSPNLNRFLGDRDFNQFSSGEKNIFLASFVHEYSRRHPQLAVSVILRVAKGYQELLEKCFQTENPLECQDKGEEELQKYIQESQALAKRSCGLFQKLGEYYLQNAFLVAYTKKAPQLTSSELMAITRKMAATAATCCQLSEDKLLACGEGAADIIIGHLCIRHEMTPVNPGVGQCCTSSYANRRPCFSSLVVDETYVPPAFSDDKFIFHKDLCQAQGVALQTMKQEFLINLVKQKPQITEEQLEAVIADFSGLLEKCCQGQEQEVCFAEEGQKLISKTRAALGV
Assay: fluorescence sandwich aptasensor (magnetic capture); capture aptamer on Fe3O4@MPTMS@AuNPs; AFP 0.005-10 ng/mL; LOD 1.429 pg/mL is not a Kd; PBS 10 mM, pH 7.4 (aptamer 1 immobilization); room temperature, 30 min AFP then 30 min aptamer 2; 15 nM aptamer 1, 8 ug/mL AIEgen aptamer 2, 10 ug/mL Fe3O4@MPTMS@AuNPs
Details: label: immobilized on Fe3O4@MPTMS@AuNPs

B1: Aptamer 1 (AFP aptamer, 3'-SH) (ssDNA)
DNA: GTGACGCTCCTAACGCTGACTCAGGTGCAGTTCTCGACTCGGTCTTGATGTGGGTCCTGTCCGTCCGAACCAATC
modifications: 3'-thiol
**Q.** Does B1 bind?
**A.** binds

— publication PMC10046738, “Detection of Alpha Fetoprotein Based on AIEgen Nanosphere Labeled Aptamer Combined with Sandwich Structure of Magnetic Gold Nanocomposites”
